Data taken from article PMC8102066, “Differences in interactions between transmembrane domains tune the activation of metabotropic glutamate receptors” (eLife, 2021).
Blank lines part the entries; values can stand above or below the substance they belong to.

What was measured:
HA-SNAP-mGluR2-TMD (rat) = test: single-molecule pulldown (SiMPull) with photobleaching step counting; HEK 293T cells surface-labelled with BG-LD555, lysed in 1.2% IGEPAL, diluted in 0.1% IGEPAL buffer; HA-SNAP constructs captured by biotinylated anti-HA antibody on NeutrAvidin/PEG slides; TIRF; percent dimerization = two-step bleaching min-max normalised (5% background, 55% for full-length mGluR2); in some experiments saturating ligands (TASP, MNI 137, glutamate, LY34) kept from cell dissociation on
SNAP-mGluR2-TMD-3xTM4_W = test: SiMPull; details: SNAP-tagged constructs labeled with LD555; 9 movies; parent: est. 83; read off a plot
SNAP-mGluR2-TMD-I779A [1] = test: SiMPull; details: SNAP-tagged constructs labeled with LD555; 6 movies; parent: est. 80; read off a plot
SNAP-mGluR2-TMD-I779A [2] = test: SiMPull; details: SNAP-tagged constructs labeled with LD555; 6 movies; parent: est. 80; read off a plot; remark: listed apart in the source
SNAP-mGluR2-TMD-I779W = test: SiMPull; details: SNAP-tagged constructs labeled with LD555; 6 movies; parent: est. 80; read off a plot
SNAP-mGluR2-TMD-P778A = test: SiMPull; details: SNAP-tagged constructs labeled with LD555; 6 movies; parent: est. 80; read off a plot
[3] = target: SNAP-mGluR2-TMD-P778A-I779A; test: SiMPull; details: SNAP-tagged constructs labeled with LD555; 6 movies; parent: est. 80; read off a plot
HA-SNAP-mGluR3-TMD (rat) = test: single-molecule pulldown (SiMPull) with photobleaching step counting; HEK 293T cells surface-labelled with BG-LD555, lysed in 1.2% IGEPAL, diluted in 0.1% IGEPAL buffer; HA-SNAP constructs captured by biotinylated anti-HA antibody on NeutrAvidin/PEG slides; TIRF; percent dimerization = two-step bleaching min-max normalised (5% background, 55% for full-length mGluR2); in some experiments saturating ligands (TASP, MNI 137, glutamate, LY34) kept from cell dissociation on
SNAP-mGluR3-TMD-F690A = test: SiMPull; details: SNAP-tagged constructs labeled with LD555; 6 movies; parent: est. 46; read off a plot
SNAP-mGluR3-TMD-G694A = test: SiMPull; details: SNAP-tagged constructs labeled with LD555; 6 movies; parent: est. 46; read off a plot
SNAP-mGluR3-TMD-I788A = test: SiMPull; details: SNAP-tagged constructs labeled with LD555; 6 movies; parent: est. 50; read off a plot
SNAP-mGluR3-TMD-S686A = test: SiMPull; details: SNAP-tagged constructs labeled with LD555; 6 movies; parent: est. 46; read off a plot
SNAP-mGluR3-TMD-3xTM4_W = test: SiMPull; details: SNAP-tagged constructs labeled with LD555; 6 movies; parent: est. 46; read off a plot

HA-SNAP-mGluR3-TMD (domain or fragment), sequence (P31422 23-879): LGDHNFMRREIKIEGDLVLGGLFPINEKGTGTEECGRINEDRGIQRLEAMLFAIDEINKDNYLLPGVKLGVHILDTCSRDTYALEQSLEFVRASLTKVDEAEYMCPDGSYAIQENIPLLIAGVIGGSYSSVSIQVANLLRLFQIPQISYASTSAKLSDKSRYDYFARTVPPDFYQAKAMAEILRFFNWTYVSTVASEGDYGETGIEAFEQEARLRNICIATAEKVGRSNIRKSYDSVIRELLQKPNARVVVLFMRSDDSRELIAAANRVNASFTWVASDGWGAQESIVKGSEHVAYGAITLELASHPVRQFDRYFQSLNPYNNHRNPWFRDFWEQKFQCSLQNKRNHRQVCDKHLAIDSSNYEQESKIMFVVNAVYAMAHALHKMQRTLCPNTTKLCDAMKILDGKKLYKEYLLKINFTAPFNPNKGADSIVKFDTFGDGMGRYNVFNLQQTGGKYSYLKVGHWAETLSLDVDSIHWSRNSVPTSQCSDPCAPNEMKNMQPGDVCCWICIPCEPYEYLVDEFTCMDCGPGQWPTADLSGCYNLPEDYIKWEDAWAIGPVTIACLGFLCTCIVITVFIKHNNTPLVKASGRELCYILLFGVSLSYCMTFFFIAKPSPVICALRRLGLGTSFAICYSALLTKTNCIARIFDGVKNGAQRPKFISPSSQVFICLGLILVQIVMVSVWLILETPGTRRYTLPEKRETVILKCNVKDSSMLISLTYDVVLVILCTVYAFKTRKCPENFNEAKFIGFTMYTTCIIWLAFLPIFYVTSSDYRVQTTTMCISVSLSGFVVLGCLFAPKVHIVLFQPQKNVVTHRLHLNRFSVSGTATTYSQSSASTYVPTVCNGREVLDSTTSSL
HA-SNAP-mGluR2-TMD (domain or fragment), sequence (P31421 19-872): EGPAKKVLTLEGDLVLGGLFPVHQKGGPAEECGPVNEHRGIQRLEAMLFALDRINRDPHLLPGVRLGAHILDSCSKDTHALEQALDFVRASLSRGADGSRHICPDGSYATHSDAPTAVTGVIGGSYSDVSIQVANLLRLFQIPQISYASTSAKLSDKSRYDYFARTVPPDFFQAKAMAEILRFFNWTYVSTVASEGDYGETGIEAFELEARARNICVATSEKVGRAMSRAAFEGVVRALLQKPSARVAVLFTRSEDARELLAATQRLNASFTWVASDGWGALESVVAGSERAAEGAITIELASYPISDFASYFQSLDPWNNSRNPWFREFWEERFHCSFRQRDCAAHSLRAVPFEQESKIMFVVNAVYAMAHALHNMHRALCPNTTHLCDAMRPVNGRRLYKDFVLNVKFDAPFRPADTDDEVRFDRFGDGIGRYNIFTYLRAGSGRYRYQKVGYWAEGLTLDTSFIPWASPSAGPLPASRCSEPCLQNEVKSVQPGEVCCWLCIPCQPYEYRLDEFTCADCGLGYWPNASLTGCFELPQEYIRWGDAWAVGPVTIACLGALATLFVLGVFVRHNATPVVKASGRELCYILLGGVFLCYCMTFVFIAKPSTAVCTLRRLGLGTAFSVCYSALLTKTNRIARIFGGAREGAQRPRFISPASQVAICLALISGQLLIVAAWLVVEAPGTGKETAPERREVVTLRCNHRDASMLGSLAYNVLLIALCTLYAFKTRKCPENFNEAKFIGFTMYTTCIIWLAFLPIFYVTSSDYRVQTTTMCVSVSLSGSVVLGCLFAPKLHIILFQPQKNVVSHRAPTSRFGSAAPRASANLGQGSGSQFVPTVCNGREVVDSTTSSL

Substance: HA-SNAP-mGluR2-TMD (domain or fragment)
- percent of spots bleaching in >3 steps (HA-SNAP-mGluR2-TMD (rat)): 4.5%
- percent of spots bleaching in one step (HA-SNAP-mGluR2-TMD (rat)): 54.1%
- percent of spots bleaching in two steps (HA-SNAP-mGluR2-TMD (rat)): 41.4%

Substance: HA-SNAP-mGluR2-TMD I779A
- other: percent dimerization (SNAP-mGluR2-TMD-I779A [1]): 57%
- other: percent dimerization (SNAP-mGluR2-TMD-I779A [2]): 57%

Substance: HA-SNAP-mGluR2-TMD P778A
- other: percent dimerization (SNAP-mGluR2-TMD-P778A): 64%

Substance: HA-SNAP-mGluR2-TMD P778A; I779A
- other: percent dimerization [3]: 57%

Substance: HA-SNAP-mGluR3-TMD F690A
- other: percent dimerization (SNAP-mGluR3-TMD-F690A): 64%

Substance: HA-SNAP-mGluR3-TMD I788A
- other: percent dimerization (SNAP-mGluR3-TMD-I788A): 38%

Substance: HA-SNAP-mGluR3-TMD S686A
- other: percent dimerization (SNAP-mGluR3-TMD-S686A): 72%

Substance: HA-SNAP-mGluR3-TMD S686W; F690W; G684W
- other: percent dimerization (SNAP-mGluR3-TMD-3xTM4_W): 45%

More lines, now with the values ahead:

- other: percent dimerization (SNAP-mGluR2-TMD-3xTM4_W): 39%
Substance: HA-SNAP-mGluR2-TMD A677W; A681W; A685W

- other: percent dimerization (SNAP-mGluR2-TMD-I779W): 61%
Substance: HA-SNAP-mGluR2-TMD I779W

- percent of spots bleaching in >3 steps (HA-SNAP-mGluR3-TMD (rat)): 2.9%
- percent of spots bleaching in one step (HA-SNAP-mGluR3-TMD (rat)): 69.1%
- percent of spots bleaching in two steps (HA-SNAP-mGluR3-TMD (rat)): 27.9%
Substance: HA-SNAP-mGluR3-TMD (domain or fragment)

- other: percent dimerization (SNAP-mGluR3-TMD-G694A): 62%
Substance: HA-SNAP-mGluR3-TMD G694A
